Assay [1] has as its target chimeric antibody I3.1 Fab (human). As to the kind of experiment: BLI; fortéBIO BLItz; Fab (0.2 mg/mL) immobilised on Anti-Human Fab-CH1 second generation biosensors; gp120 core in solution at three or more concentrations (9.6 to 110 μM); 10 mM Tris, pH 7.5, 100 mM NaCl; global fit of at least three measurements. For orientation: BLI is a label-free optical method that tracks binding on a fibre tip over time.

Assay [2] shares this target. As to the kind of experiment: BLI; […]; Fab (0.2 mg/mL) […] (9.6 to 110 μM); 10 mM Tris, pH 7.5, 100 mM NaCl; […].

pKd: −log10 of the molar value.

A word on the pKd: it is −log10 of the Kd, conventionally taken in molar units. A lower pKd goes with a high Kd.

chimeric antibody I3.1 Fab (human), sequence (heavy, as listed by the source, chain 1 of 2): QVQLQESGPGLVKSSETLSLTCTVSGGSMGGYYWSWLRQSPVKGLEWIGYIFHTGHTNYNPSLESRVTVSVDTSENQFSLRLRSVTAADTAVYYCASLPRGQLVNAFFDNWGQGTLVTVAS
chimeric antibody I3.1 Fab (human), sequence (light, as listed by the source, chain 2 of 2): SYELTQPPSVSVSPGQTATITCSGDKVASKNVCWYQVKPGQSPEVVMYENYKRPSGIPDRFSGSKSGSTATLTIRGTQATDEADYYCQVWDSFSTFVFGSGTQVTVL

The substance “92UG037.8 gp120 core WT (domain or fragment)” had a pKd in assay [1] of 5.48.

As for “CH505 T/F gp120 core WT (domain or fragment)”, the negative logarithm of the Kd (pKd) in assay [2] was 5.70.
